# Source: the DeepSol protein solubility set
# Test: soluble on expression in E. coli; label from the status in PepcDB or PDB records
row,Sequence,soluble on expression in E. coli
1,MSLARPNSKASIGTVFQDRAARYGDRVFLKFGDQQLTYRDANATANRYAAVLAARGVGPGDVVGIMLRNSPSTVLAMLATVKCGAIAGMLNYHQRGEVLAHSLGLLDAKVLIAESDLVSAVAECGASRGRVAGDVLTVEDVERFATTAPATNPASASAVQAKDTAFYIFTSGTTGFPKASVMTHHRWLRALAVFGGMGLRLKGSDTLYSCLPLYHNNALTVAVSSVINSGATLALGKSFSASRFWDEVIANRATAFVYIGEICRYLLNQPAKPTDRAHQVRVICGNGLRPEIWDEFTTRFGVARVCEFYAASEGNSAFINIFNVPRTAGVSPMPLAFVEYDLDTGDPLRDASGRVRRVPDGEPGLLLSRVNRLQPFDGYTDPVASEKKLVRNAFRDGDCWFNTGDVMSPQGMGHAAFVDRLGDTFRWKGENVATTQVEAALASDQTVEECTVYGVQIPRTGGRAGMAAITLRAGAEFDGQALARTVYGHLPGYALPLFVRVVGSLAHTTTFKSRKVELRNQEGHHHHHH,not soluble
2,MAPQSNNSTTFVSKTQHYLKVKKPLLERQRRARMNKCLDTLKTLVAEFQGDDAILRMDKAEMLEAALVFMRKQVVKQQAPVSPLPMDSFKNGYMNAVSEISRVMACTPAMSVDVGKTVMTHLGVEFQRMLQADQVQTSVTTSTPRPLSPASSGYHSDNEDSQSAASPKPVEETMWRPWLEHHHHHH,not soluble
3,MGHHHHHHSHMIEVLTTTDSQKLLHQLNALLEQESRCQPKVCGLRLIESAHDNGLRMTARLRDFEVKDLLSLTQFFGFDTETFSLAVNLLDRFLSKMKVQPKHLGCVGLSCFYLAVKSIEEERNVPLATDLIRISQYRFTVSDLMRMEKIVLEKVCWKVKATTAFQFLQLYYSLLQENLPLERRNSINFERLEAQLKACHCRIIFSKAKPSVLALSIIALEIQAQKCVELTEGIECLQKHSKINGRDLTFWQELVSKCLTEYSSNKCSKPNVQKLKWIVSGRTARQLKHSYYRITHLPTIPEMVP,not soluble
4,MGSDKIHHHHHHMKIYLVGGAVRDSLLGLPVTEKDWVVVGATPEHLLAQGYQQVGKDFPVFLHPISRDEYALARTERKSGKGYTGFVCHAEPDVTLEQDLLRRDLTINAIARTERGDLIDPYHGRRDLDNRVLRHVSDAFSEDPLRVLRVARFAARFAHLGFQIAEETMALMQKMAHEGELAFLTPERVWKETEKALGTSSPDVYFQVLRDCGALAVLFPEIDNLYGVPAPAKWHPEIDTGIHTMMTVAMAARLSPDIDVRFATLCHDLGKGLTPPELWPRHLGHGPAGVKLVEALCQRLRVPNPIRDLAKLVAEYHDLVHTVQVLQPKTLLKLFDAIDVWRKPQRLEQLALTSEADARGRTSFEENPYPQGNYLREAFRVASQVSSASVVADGFKGIDVRNELARRRIHALADWKAQQPDVSSTS,not soluble
5,SNAMNVIRLKEDKFREALRLSEYAFQYKVDEDRLQQQITKMKESHEVYGIMEGENLAAKLHLIPFHIYIGKEKFKMGGVAGVATYPEYRRSGYVKELLQHSLQTMKKDGYTVSMLHPFAVSFYRKYGWELCANLLVCHMTKSDLVMKKQVNGTVKRFNKESHPEEVEKLYETFAELFSGMLVRNEKWWLQAVYDDLTLAIYYDENQTAAGYMLYKIENYKMTVEEFVPLHNEARNGLWNFICQHDSMIKDLEMTVSENEPLLYTLQEPRVKTEIKPYFMGRIVDVEQFLKQYELNWNNVQQEVILHITDSFAQWNNITVRIANHEITIIEEPIDKGIKLDINALSTILFGYRRPLELNELELISGSEEEIRAFESVVPVRKPFIYDFF,soluble
6,DQRRRFIEAVLSGVTAAVIGVGRDRRITIFNPSSEGMLKKAAPELIGANLSDVAPEIEAVLVEAESRYRNDYRKQINIMRGGTERTMNVQVTREEGDESHGSYVITVDDIT,not soluble
7,MSLSRITTDQLRHAVLDRGSFVSWDSEPLAVPVADSYARELAAARAATGADESVQTGEGRVFGRRVAVVACEFDFLGGSIGVAAAERITAAVERATAERLPLLASPSSGGTRMQEGTVAFLQMVKIAAAIQLHNQARLPYLVYLRHPTTGGVFASWGSLGHLTVAEPGALIGFLGPRVYELLYGDPFPSGVQTAENLRRHGIIDGVVALDRLRPMLDRALTVLIDAPEPLPAPQTPAPVPDVPTWDSVVASRRPDRPGVRQLLRHGATDRVLLSGTDQGEAATTLLALARFGGQPTVVLGQQRAVGGGGSTVGPAALREARRGMALAAELCLPLVLVIDAAGPALSAAAEQGGLAGQIAHCLAELVTLDTPTVSILLGQGSGGPALAMLPADRVLAALHGWLAPLPPEGASAIVFRDTAHAAELAAAQGIRSADLLKSGIVDTIVPEYPDAADEPIEFALRLSNAIAAEVHALRKIPAPERLATRLQRYRRIGLEGHHHHHH,not soluble
8,MAGDPMTSLTYLQGYPEHLLAQVRALIAEQRLGAVLEKRYPGAHDYATDKALYHYTQELKSQFLRNAPPINKVMYDSKIHVLKNALGLHTAVSRVQGGKLKAKAEIRVATVFRNAPEPFLRMIVVHELAHLKEKDHNKAFYQLCCHMEPQYHQLEFDTRLWLTHQALSAQLEHHHHHH,not soluble
9,MENNVESNLQPVPMRYGDKRYYSWNQHLREQFGEKVFKVPLDAGFDCPNRDGNVASGGCTFCSERGSGDFAGDRKDDLVTQFHTIKERMHKKWTSGKYIGYFQAYTNTYAPVETLREYYEVILEQEGVVGLAIATRPDCLPDDVVEYLAELNKRTYLWVELGLQTVHERTALLINRAHDYQCYVDGVNKLRKHGIRVCSHIINGLPLENHQMMMETAKEVAKLDVQGIKIHSLHLLKRTPMVKQYEKGLVEFMSLEEYVNLVVDQLEVLPPHMIIHRLMGDGPGDLMIGPMWSMKKWEVLNAIEAELERRDSWQGKHYRAQVEVQ,not soluble
10,MSLNFVAMDFETANQHPASACSLALVLVRESKIIDRFYTVINPQMAFDAQQVKVHDITAEDVAGAPTMAEVWPKIQPLFQPGMLVAAHNARFDCNVMKQSLARYGIAEPHYLVLDSLKVSRELEPGLDNYQLNTVSDLLGVELWHHHNALSDSEACAGILLKEEEKRGSELLKKFVYQVEGHHHHHH,not soluble
11,MSPEEVKARGWKELDVILVTGDAYVDHSSFGTAIIGRVLEDAGFRVGIIAQPRWENPEDFKKLGKPRLFFSVSAGNTDSMVSNLTPGLKPRNKDAYSPGGKTGLRPNRAAIIYSNRIKEAFPDMPIVLGGIEASMRRFAHYDYLSDKVRQSILADAPADLVVYGMGELQIVEIAKRLQAGEDIKGIRDISGTVWKMEVKAWKELKGKGKEKAGEQDESENATEEVAKDKSLDPAEFFKEYVEIPSFSEVSQDKAVFAKAFRTYFLEQNPVTGKGIVQPHPKTIIIQNKPMRPLTEAELDHVYELPYTGETHPSYTEPVPALEMVKFSLTTHRGCF,not soluble
12,MGSDKIHHHHHHMRLGVNEAVELSLGELQNTPSISYFNSIVLSLNKVQKGSLFVAKDHTLIPKALELGAYGILYTGEYPVSDRDVAWIKLKDIEHSLNHLFKFCLLNERVVGALLSPIELEIASKIMVSNFVWCLKESLEDLFIIEGCKIAFFDKLEWLHLFYKQEHLKEDLKESCLIILNQSFFCSALVYEKQEYEFKMPCIFLGSLKRVIQLCEKLQIEFDLNLLGKKEYPLDHCKPFFVNKNLEIAPYGTTARVIVAETSKELFEMMLQKAFEILSWGKIVVFCRKNSAAFFKKTNPYFYTTQNNLKEQLKNLAFNFAFIHGISSHHLESLLNPPFFKKTPTLW,not soluble
13,MTNLNYQQTHFVMSAPDIRHLPSDTGIEVAFAGRSNAGKSSALNTLTNQKSLARTSKTPGRTQLINLFEVADGKRLVDLPGYGYAEVPEEMKRKWQRALGEYLEKRQSLQGLVVLMDIRHPLKDLDQQMIEWAVDSNIAVLVLLTKADKLASGARKAQLNMVREAVLAFNGDVQVETFSSLKKQGVDKLRQKLDTWFSEMQPVEETQDGE,soluble
14,MKLIITEDYQEMSRVAAHHLLGYMSKTRRVNLAITAGSTPKGMYEYLTTLVKGKPWYDNCYFYNFDEIPFRGKEGEGVTITNLRNLFFTPAGIKEENIQKLTIDNYREHDQKLAREGGLDLVVLGLGADGHFCGNLPNTTHFHEQTVEFPIQGEMVDIVAHGELGGDFSLVPDSYVTMGPKSIMAAKNLLIIVSGAGKAQALKNVLQGPVTEDVPASVLQLHPSLMVIADKAAAAELAFG,soluble
15,MFTGLVEETGEILKVEEGPFLRVYIGARKVLKDLKVGDSVAVDGACLTAVTVEEGGFWVELAQETLRRTAPTWRVGHRPNLERALKVGDRLGGHFVTGHVDGVARLWEVREAPGAKDFYFLPPKALAPYIAEKGSVALNGVSLTVAGLTGEAFWVTLIPHTLEVTNLGRLRVGDGVNLEVDLIARYVARLLGRA,soluble
16,MSLQGQIDIPLDIVGRWQADQSAYELAKTYYWAKVAHLAEHNDQLAQPTYEGAHLADISEINNAPATARRMLVVSSDLFRAQQTAHAFADLMGLDVELDPRLRERSFGEWEGMTREEICEHYADDYHSWRAHTGGETKHGVESRIHTGRRGAEAVRDIVAKHHDETMPTTLLLVGHGSWIVATVAVLLDMDPDDLNNVGAMRNAFWTRMTPHTDPRNADRPTWKLEEFNQGPAIASEGHHHHHH,soluble
17,ATQRFLIEKFSQEQIGENIVCRVICTTGQIPIRDLSADISQVLKEKRSIKKVWTFGRNPACDYHLGNISRLSNKHFQILLGEDGNLLLNDISTNGTWLNGQKVEKNSNQLLSQGDEITVGVGVESDILSLVIFINDKFKQCLEQNKVDRIR,soluble
18,MGSDKIHHHHHHADNNKWKPLFGKNLENANYNPEVWSETDGVLGAVKDESIWTKDEYENFELDLDFKTDVGTNSGVVVYCTDTKDWIPNSVEIQIADDHCEKWGNGKPYEKCGAIYGHLGAVQDKVVKKPGEWNHMRIKCAGQHIMVILNGKKVTEMDMSKWTSGTKNPDGSDIPSWLPKPFAELPTKGFIGLQGKHGDSLIWFRNIKIRSL,not soluble
19,GMVKDKNDVGPKTVAILGAGGKMGARITRKIHDSAHHLAAIEIAPEGRDRLQGMGIPLTDGDGWIDEADVVVLALPDNIIEKVAEDIVPRVRPGTIVLILDAAAPYAGVMPERADITYFIGHPCHPPLFNDETDPAARTDYHGGIAKQAIVCALMQGPEEHYAIGADICETMWSPVTRTHRVTTEQLAILEPGLSEMVAMPFVETMVHAVDECADRYGIDRQAALDFMIGHLNVEIAMWFGYSPKVPSDAALRLMEFAKDIVVKEDWREALNPAKVKQAAELIAGK,soluble
20,MASLLTETMPFRMTMEGTVNGHHFKCTGKGEGNPFEGTQDMKIEVIEGGPLPFAFDILSTSC,soluble
21,MGSDKIHHHHHHMSTFHPSHPTHNRLLAALPPIELDDLAPHLELVHLLPGDVLCKPGETLPYAYFPTSSVISIHCMLENGASSELTSVGREGMLGVSLFMGGEATQNWVSVQSAGYGYRLNAAFLLQEFNEGGMLQRLLLRYSQALITEAVQNVVCSRYHTAQQRLCRWLLSMLDRLGPQDLILTQESIASILGVRRESVTAIARKLLEAGTICYRRGHIMVIDQIGLQKETCECYKKVKKEFDQVFDEVKTCEKVRQNSINAANAL,not soluble
